From article PMC8549804 (Chemical Science, 2021)

B1: gp32-ΔCTD (amino acids 1-254) (domain or fragment, bacteriophage T4, UniProt P03695 1-254, looked up)
chain: MFKRKSTAELAAQMAKLNGNKGFSSEDKGEWKLKLDNAGNGQAVIRFLPSKNDEQAPFAILVNHGFKKNGKWYIETCSSTHGDYDSCPVCQYISKNDLYNTDNKEYSLVKRKTSYWANILVVKDPAAPENEGKVFKYRFGKKIWDKINAMIAVDVEMGETPVDVTCPWEGANFVLKVKQVSGFSNYDESKFLNQSAIPNIDDESFQKELFEQMVDLSEMTSKDKFKSFEELNTKFGQVMGTAVMGGAAATAAKK
B2: bacteriophage T4 gene product 32 (gp32) (natural protein)
chain: MFKRKSTAELAAQMAKLNGNKGFSSEDKGEWKLKLDNAGNGQAVIRFLPSKNDEQAPFAILVNHGFKKNGKWYIETCSSTHGDYDSCPVCQYISKNDLYNTDNKEYSLVKRKTSYWANILVVKDPAAPENEGKVFKYRFGKKIWDKINAMIAVDVEMGETPVDVTCPWEGANFVLKVKQVSGFSNYDESKFLNQSAIPNIDDESFQKELFEQMVDLSEMTSKDKFKSFEELNTKFGQVMGTAVMGGAAATAAKKADKVADDLDAFNVDDFNTKTEDDFMSSSSGSSSSADDTDLDDLLNDLC
modifications: disulfur monoxide moiety at Cys302 (C-terminal, attributed to the intein reaction)

Molecular target: the molecule itself
Assay: native MS

| Protein | stoichiometry N |
| --- | --- |
| B1 | 2 |
| B2 | 2 |
